In patent EP2975059A1 (Kymab Limited, dated 2016):

Columns and labels:
Assay in all cases: SPR ProteOn XPR36, antibody captured on anti-human IgG, PCSK9 variant as analyte, 25 C, 1:1 model
Human PCSK9 form a = target: T1, Human PCSK9 form a (human, UniProt Q8NBP7 31-692)
T1 construct: also called PCSK9 a

Human PCSK9 form c = target: T2, Human PCSK9 form c (human, UniProt Q8NBP7 31-692)
T2 construct: also called PCSK9 c

Human PCSK9 form r = target: T3, Human PCSK9 form r (human, UniProt Q8NBP7 31-692)
T3 construct: also called PCSK9 r

Human PCSK9 form f = Human PCSK9 form f (human, UniProt Q8NBP7 31-692)
Human PCSK9 form p = target: T4, Human PCSK9 form p (human, UniProt Q8NBP7 31-692)
T4 construct: also called PCSK9 p

Binder	Kd (Human PCSK9 form a)	koff (Human PCSK9 form a)	kon (Human PCSK9 form a)	Kd (Human PCSK9 form c)	koff (Human PCSK9 form c)	kon (Human PCSK9 form c)	Kd (Human PCSK9 form r)	koff (Human PCSK9 form r)	kon (Human PCSK9 form r)	Kd (Human PCSK9 form f)	koff (Human PCSK9 form f)	kon (Human PCSK9 form f)	Kd (Human PCSK9 form p)	koff (Human PCSK9 form p)	kon (Human PCSK9 form p)
Antibody 316P (antibody, V domains shown) VH: EVQLVESGGGLVQPGGSLRLSCAASGFTFNNYAMNWVRQAPGKGLDWVSTISGSGGTTNYADSVKGRFIISRDSSKHTLYLQMNSLRAEDTAVYYCAKDSNWGNFDLWGRGTLVTVSS VL: not shown	0.201 nM	0.000275 s⁻¹	1.37e+06 M⁻¹ s⁻¹	0.184 nM	0.000275 s⁻¹	1.49e+06 M⁻¹ s⁻¹	0.197 nM	0.000276 s⁻¹	1.4e+06 M⁻¹ s⁻¹	0.203 nM	0.000282 s⁻¹	1.39e+06 M⁻¹ s⁻¹	0.196 nM	0.000273 s⁻¹	1.39e+06 M⁻¹ s⁻¹
Evolocumab (antibody, V domains shown) VH: QVQLVQSGAEVKKPGASVKVSCKASGYTLTSYGISWVRQAPGQGLEWMGWVSFYNGNTNYAQKLQGRGTMTTDPSTSTAYMELRSLRSDDTAVYYCARGYGMDVWGQGTTVTVSS VL: QSALTQPASVSGSPGQSITISCTGTSSDVGGYNSVSWYQQHPGKAPKLMIYEVSNRPSGVSNRFSGSKSGNTASLTISGLQAEDEADYYCNSYTSTSMVFGGGTKLTVL	0.229 nM	2.62e-05 s⁻¹	114000 M⁻¹ s⁻¹	0.183 nM	2.2e-05 s⁻¹	120000 M⁻¹ s⁻¹	0.23 nM	2.67e-05 s⁻¹	116000 M⁻¹ s⁻¹	0.229 nM	2.66e-05 s⁻¹	116000 M⁻¹ s⁻¹	0.219 nM	2.5e-05 s⁻¹	114000 M⁻¹ s⁻¹
